According to US20170233497A1:
Read-outs that look alike come from different tables or passages of the source.

What was measured:
[1] = biological target: recombinant extracellular domain of EGFR (UniProt P00533); assay: EGFR-coat/anti-7D8-idiotype sandwich ELISA; mixture after 25 mM 2-MEA, 90 min, 37 °C; axis = total antibody of the mixture
[2] = biological target: recombinant extracellular domain of EGFR (UniProt P00533); assay: as above; remark: listed apart in the source
[3] = biological target: mouse FcRn (neonatal Fc receptor), biotinylated (mouse) (UniProt Q61559); assay: FcRn ELISA at pH 6.0

IgG4-2F8+IgG4-7D8 (deglyc) (bispecific antibody)
EC50 (read off the curve) [1]: 0.4 mg/L

IgG4-2F8 x IgG4-7D8 (bispecific antibody)
EC50 (read off the curve) [1]: 0.3 mg/L | EC50 (read off the curve) [2]: 0.4 mg/L

IgG1-2F8-F405L+IgG4-7D8 (bispecific antibody)
EC50 (read off the curve) [2]: 0.3 mg/L

IgG1-2F8-F405L+IgG4-7D8-CPPC (bispecific antibody)
EC50 (read off the curve) [2]: 0.3 mg/L

IgG4-7D8-CPPC x IgG4-2F8 (bispecific antibody)
EC50 (read off the curve) [2]: 0.3 mg/L

bispecific IgG1 generated from IgG1-2F8-ITL and IgG1-7D8-K409R (bispecific antibody)
fold higher binding efficiency to mouse FcRn compared to human FcRn [3]: 3 fold

IgG1-2F8-ITL (antibody)
fold higher binding efficiency to mouse FcRn compared to human FcRn [3]: 3 fold
